# Laboratory results reported in the DeepSol protein solubility set.
# Experiment: soluble on expression in E. coli; label from the status in PepcDB or PDB records
row,Sequence,soluble on expression in E. coli
1,MSLFINKEAELQWVREYARRSHATPFVIYGPEGCGKTALALEAVRRFSSWYAGGIALYIDGKARRAAEAVKSNVNIGDVLAEVGGLAGSVGRSAARLAVWLLGKIVEKIAERFAPMNILVVDELFSAVGVSEGALAVKYAKELGDRVLRSKKAELGEIPKPLAEASVSYLIFSSEGSSRRELSRHNWAHIALMWNMGERGFQQLGEILGAPDFSAAWRLCGGQPPLPFPISRAGLGRGKIPNSNREGHHHHHH,soluble
2,MAHHHHHHMLLLKRPFLPARVAPLCAQRKVSRLITYYTKSHEYIKINDEDLTELKKKNNVKCKIGISNYGTEKLGEIVYIDISQNINEYVKKGECIATVESVKSVGDVYTPISGQIVDINNEIVDNVNLMNGNSESDGWILELLTNDVNEKEIMSFSEYKKMCEEEEQREATKIQQSERDCLEEKNKNKIFDLNDIKNIEEKTKK,soluble
3,MKYSYVARQPILDREKRTIGYELLFRDGPKNTFPEVEPELATSRLLSDHFLSTHYNTLGNKLGFVNFPHQSLVNLVPTLFPKDSLVIEVLEDCEPTQELLDAIKHLHECGYRIALDDFVPTKAWKRFLPYVSMIKFDIRLVPIEKAAIFIQALSQFNIDFLAEKVETYEEFEQALDAGFNYFQGYFFSKPEMIQKKRLNPAFLTVIQLCKEIADKPIDFNEVERLFSIDVTLSYKLLTYVNSGYTLTTKIKSFRQALIYLGEERLRRFISLVAIASVQEDKPDSLYSLAIQRARMCEILLSQMKTKYDPGQAFLTGMFSLLGSLLDQPLSDVIEDIPVDEDIKLALTSRKGVLGYLLSMCIAYEQADWELAERYCSVLKLTETQLADAFNESTEWAQELLSQTP,not soluble
4,AIATLEKKEYGAPGFWPGSMIGRVHAFETPAPLTRAQLDRLRDEFFETRTEGHLEIWTAIRAASHAQEAGDDELAYAIITAVGILPAEVGPAGEGLGERIPFAEQPLDRLLGMICGCCFPAFTRYRTLERVYDQRGFLYETPKECIATPSNVLPDESTEASAR,soluble
5,MSLTQVPAGQFTATKNLRPAAKPGKDVVLRVYSDFQCPYCQKLELETMPALLRALPDDVRVEFHQFPLEQIHPLARPAAEASECAAQQGRFWDYKDALFRDRSWLQNNPNETFLRLAGDLKLDPGKFKDCLALRGGKAGVDAGLAEAQQLGLNATPTVFVDGYRVGNPFDTAAVLQLIDVARATREGHHHHHH,soluble
6,MRGSHHHHHHGSAPIKVGDAIPAVEVFEGEPGNKVNLAELFKGKKGVLFGVPGAFTPGCSKTHLPGFVEQAEALKAKGVQVVASLSVNDAFVTGEWGRAHKAEGKVRLLADPTGAFGKETDLLLDDSLVSIFGNRRLKRFSMVVQDGIVKALNVEPDGTGLTCSLAPNIISQL,soluble
7,MRKGINMTAELLVNVTPSETRVAYIDGGILQEIHIEREARRGIVGNIYKGRVSRVLPGMQAAFVDIGLDKAAFLHASDIMPHTECVAGEEQKQFTVRDISELVRQGQDLMVQVVKDPLGTKGARLTTDITLPSRYLVFMPGASHVGVSQRIESESERERLKKVVAEYCDEQGGFIIRTAAEGVGEAELASDAAYLKRVWTKVMERKKRPQTRYQLYGELALAQRVLRDFADAELDRIRVDSRLTYEALLEFTSEYIPEMTSKLEHYTGRQPIFDLFDVENEIQRALERKVELKSGGYLIIDQTEAMTTVDINTGAFVGHRNLDDTIFNTNIEATQAIARQLRLRNLGGIIIIDFIDMNNEDHRRRVLHSLEQALSKDRVKTSVNGFSALGLVEMTRKRTRESIEHVLCNECPTCHGRGTVKTVETVCYEIMREIVRVHHAYDSDRFLVYASPAVAEALKGEESHSLAEVEIFVGKQVKVQIEPLYNQEQFDVVMM,not soluble
8,MRTLPILLLVIVGVVYCYPLNEDNVDLESDVAEMEGAELDRVKRASDHKLEKKLDEIMEKVEKIKDKIEENKEKREKKNKKKGNKKDEDEEEEEDKDKKKKDKKKNKDSEEEEDKKKDKKKKNDSSDESEEENKKRKNKRKN,not soluble
9,MLSSHLSQICFSCRDPLGNLPADLIRKCTDLMDLNFAEGQRLRTLNKNWKLALPSFRKGAYREERPWLLYRERGSGETRFFDPVRERVHRGNDPRLADARFLGSTLGWLVMSESLDLNPRKTHQTFLYNPFISELQQLPELTLDSPYPTGVLRYGVLTGNPSDNNTYACLITDYLHEIGNRRDTYTLLIYYVAKTSGRWEQNWSVASMLVVGIFDTWYIESISPSPDKISIEIWPKRYDFTFQTQEWNVSNFIPVDPIQWDPFHDQSLYHVKHRLQLPENPSTLAIIIGTSTDRTRVRNKIIGDQSDDDDPRASDHIIDGVWVEVRP,soluble
10,MSQLDNNLSVSVYMKGNVNNHEFEYDGIGGGDPNSGQFSLKTKLRGGKPLPFSYDIITMGFQYGFRAFTKYPEGIADYFKGSFPEAFQWNRRIEFEDGGVINMSSDITYKDKVLHGDVWALGVNFPPNGPVMKNEIVMEEPAEETLTAKNGVLVGFCPKAYLLKDGSYYYGHMTTFYRSKKSGQPLPGFHFIKHRLVKTKVEPGFKMVEQAEYATAHVCDLPKPN,soluble
11,MNVLVIEDDKVFRGLLEEYLSMKGIKVESAERGKEAYKLLSEKHFNVVLLDLLLPDVNGLEILKWIKERSPETEVIVITGHGTIKTAVEAMKMGAYDFLTKPCMLEEIELTINKAIEHRKLRKENELLRREKDLKEEEYVFESPKMKEILEKIKKISCAECPVLITGESGVGKEVVARLIHKLSDRSKEPFVALNVASIPRDIFEAELFGYEKGAFTGAVSSKEGFFELADGGTLFLDEIGELSLEAQAKLLRVIESGKFYRLGGRKEIEVNVRILAATNRNIKELVKEGKFREDLYYRLGVIEIEIPPLRERKEDIIPLANHFLKKFSRKYAKEVEGFTKSAQELLLSYPWYGNVRELKNVIERAVLFSEGKFIDRGELSCLVNSK,soluble
12,MSFDGFFLHHLTKELQEQILWGRIQKVNQPFEQELVLTIRNNRQNYKLLLSAHPVFGRVQLTKTDFQNPQSPNTFTMIMRKYLQGALIENIEQIENDRILEMSISNKNEIGDQIKVTMIIEIMGKHSNIILLDKNEGKITESIKHIGFTQNSYRTILPGSRYLAPPKIQAQNPFTISDETLFEILQTEDLAANNLQKLFQGLGRDTAAELSQRLKTDTFKNFKLFFDSPTSPTLTEKSFTAITFSNSQETFGSLSDLLDYFYQDKAERDRIAQQASDLIHRIQNELEKNKKKLKKQEQELQDTDKAEEFRQKGELLTTYLNQVPNNQDSVELDNYYTGQKVSIPLNKALTPSQNAQRYFKKYQKLKEAVKHLGSLISETKATIQYLESVDNALNQASLSEISEIREELVQTGFVKRRHREKIQKRKK,not soluble
13,MKQILCTLDYELYGNGTGDVFEHIIKPTEELLAIARRHGIKYTIFFEVVEFWYLKREWERGNKMGYTEDPISAMEQQLREAYLQGHDVQLHLHPQWIGAVHQDGQWRLDLSNWCLGRYQGKGEYSLLSLLKRGKETIEEIIRPVDPHYSCIALRAGGYNAQPSEEIVRAMRQVGLKVDSSIYPGGFETGALSNYDYSSVAPDLGHWYVEDRLEYSAHGATDILELPIVAFPIRRLQKYLSLDRIKALFQNRKSAADTYSAKTANKGGIWGKISYFVELEWQTWDFCLFSKNLHRRFLKRVESQRGRKEFVLVGHPKSFVSGESFNYLIGQLKSSYQFLSMTELYDQRLKIGTKKGVKDTHKPETPAPEGPSPEGPEAGL,not soluble
14,MSLYKAVFSDFNGTLLTSQHTISPRTVVVIKRLTANGIPFVPISARSPLGILPYWKQLETNNVLVAFSGALILNQNLEPIYSVQIEPKDILEINTVLAEHPLLGVNYYTNNDCHARDVENKWVIYERSVTKIEIHPFDEVATRSPHKIQIIGEAEEIIEIEVLLKEKFPHLSICRSHANFLEVMHKSATKGSAVRFLEDYFGVQTNEVIAFGDNFNDLDMLEHVGLGVAMGNAPNEIKQAANVVTATNNEDGLALILEEKFPEEGHHHHHH,soluble
15,GMTTNTIMEQEARTAPQKIAEQLLANDAITESLGSVLREFKPKFVMIVGRGSSDHAGVFAKYLFEIEASIPTFAAAPSVASVYGKTLKLAGGLVIVISQSGRSPDILAQARMAKNAGAFCVALVNDETAPIKDIVDVVIPLRAGEEKAVAATKSYLATLSALLQVAAKWTQNESLVEAVNSLPQALQAAVDAEPQLRAGSLTDVKNLVVLGRGFGYAVSKEIALKLKEVCAIHAEAFSSAEFLHGPVTLVEKKLSILDVCIRDESYGSHVEQIANVKQRGANLIHLHQTSADIHPRIAPLALLQRFYIDVAAVAIALGINPDKPAGLKKVTQTL,soluble
16,MSLKITAVEPFILHLPLTSESISDSTHSITHWGVVGAKITTSDGIEGYGFTGTHAHLPSDRLITSCISDCYAPLLLGEDASDHSRLWTKLARYPSLQWVGRAGITHLALAAVDVALWDIKAKKAGVPLWHYLGGARTAGVEAYNTDIGWLSFTLEDLLAGSARAVEEDGFTRLKIKVGHDDPNIDIARLTAVRERVDSAVRIAIDGNGKWDLPTCQRFCAAAKDLDIYWFEEPLWYDDVTSHARLARNTSIPIALGEQLYTVDAFRSFIDAGAVAYVQPDVTRLGGITEYIQVADLALAHRLPVVPHAGEMSQVHVHLSYWHPASTILEYIPWIKDHFEEPIHVRDGVYKRPEQPGASTTPLAESFTRYGKAVKEGHHHHHH,soluble
17,MSMLCSLYRITPEQVTKLKDFPDAIGELVGFTAPPPKVSFLSKLFGKPPKQLSSSGQQFEPVAESDIFELNQAWHILHFLFSGTNAESPWPGGFLISGGEEIGPDQGYGPIRLFDSELSRAVAGFLDTQSFKMLDSAYVASEIEATEIYWKVSSEHTERQRQLEELWSMVKELQTFFEHTVRAGNATLLSIY,not soluble
18,MSLELVSLLMQDCQSTGDIQSKLKRLFAGTIEQMLEAEMEDHLGYEKNSIEGNNSGNSRNGYNRKTIISDYGASEIAVPRDRNGEFEPKILEKRQTRTDEIEQKILSMYSKGMSQRDIEDTLREIYGAEIPQTLISKITDKILPEVNEWQNRPLESVYPIIYFDGIVFKSRKDSQIINKCVYSVLGIDMNGHKDILGIWLSENESASFYASICSDLKKRGIQDIFIACHDNLKGLGEAINAVFPKTKQQLCIVHQIRNSTKFVQYKDRKAICADLKKIYGAVNLDDAEYAKEEFREKWDKKYPSILRSWDANWAELTTFFNYPEQIRHLIYTTNAVEAYHRMVRKFTKTKSIFPTDDSIRKVVFLSSREITKKWTQPSRGWPMAYSQIMIFFADRFIAEGHHHHHH,soluble
19,MLDFEKPLFEIRNKIDSLKESQEKNEVDLQDEIDMLEASLKRETTKVYTNLKPWDRVQIARLPERPTTLDYIPYIFDSFIELHGDRSFRDDPAMIGGIGYLDGKSVTVIGQQRGKDTKDNIYRNFGMAHPEGYRKALRLMKQAEKFNR,not soluble
20,MAHHHHHHMADNITNDKRDIFKIHKWSAVAAWSWDISVDNCAICRNHIMDLCIECQAKTTDHENDKDKKIDKEGCTVAWGVCNHAFHLHCISRWIKARQVCPLDNTTWEFQKATD,soluble
21,MVVAKPTAAVSIEDLIKKHSDVDPFLVKKWERIFSLFFDRNASHQVDWGDFYLVVKKVRDIYGAESVQTGFAKKSLAALWEGLCSIADADKDQLISIDEWIGLLKKTDAKTEPKWFKDYQNFMFKLFDVSCDGVMDLAEYTDGMSTYGFDQSECDAAFHKFSVDKKGQYVPQMKPETWNTYFHQLFYSTNKSDVGNHLFGIIDF,not soluble
22,MALRRVKNPEMWNDDLYNLMFRFTKPNGTFATFTAASAVRKGLESAGFNVTKRKGFGKKRECLSGLKIQSKSTALSTPWYLAQPAKMEKQDVAIIGGGIASLCAAISLIKRGAKVTIYCEDDALALNASGNKQGAFYPQLSDDNALTVDFYLHAFSYGRQLLDWAIEQNIVFEHEFCGVALCAYNEKSAVKLTKISQLGLPNEIFQMLSAEQLSEKVGLPLNCEGGWIEQGAWLAPRQFVQNAFSFLEKQGVVIKTAQKITALSQLEKGWELKNMQGQKYCHEVVILANGHKITDFVQTEKLPLYPIRGQVSQIPTSENLLKLKSVLCYDGYLTPANQLKTSHCIGASMFVIMLIAILANKNNKKINKNSSKISPNLGRKMWIHQIISLVLEHHHHHH,not soluble
